T1: PSCA (prostate stem cell antigen), human, PSCA v.1 (human, UniProt O43653 12-83)
T1 construct: whole, on cells; also called PSCA变体1; 人PSCA
T1 sequence (looked up): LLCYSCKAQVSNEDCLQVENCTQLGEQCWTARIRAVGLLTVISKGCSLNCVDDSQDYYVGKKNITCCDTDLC

B1: Ha1-4.37 (antibody, V domains shown)
VH: PGALQESGPGLVRPSQTLSLTCTVSGGSISSGGTYYWIWIRQHPGKGLEWIGYIYYSGSTYYNPSLKSRVTISVDTSKNQFSLKLSSVTAADTAVYYCARDGITMVRGISGGMDVWGQGTTVTVSS
VL: ASVGDRVTITCRASQSISSHLNWYQQKPGKAPKLLIYAASSLQSGVPSRFSGSGSGTDFTLSISSLQPEDFATYFCQQSYSIPRTFGQGTKVEITR
notes: ATCC PTA-6702
B2: Ha1-1.16 (antibody, V domains shown)
VH: QVQLQQSGPGLVKPSQTLSLTCAISGDSVSSNSAAWNWIRQSPSRGLEWLGRTYYRSKWYNGYAVSVKSRMTINPDTSKNQFSLQLNSVTPEDTAVYYCARERLGELYGMDVWGQGTTVTVSS
VL: QLTQSPDSLAVSLGERATINCKSSQNILYRSSKKNHLVWYQQKPGQPPKLLIYWASTRESGVPARFSGSGSGTDFTLTISTLQAEDVAVYYCQQYYSTPPTFGQGTRLEIKR
notes: ATCC PTA-6698; also called Ha1-1.16.1
B3: Ha1-4.117 (antibody, V domains shown)
VH: QVQLQESGPGLVKPSQTLSLTCTVSGGSISSGGYYWIWIRQHPGKGLEWIGYIYYNGNTYYNPSLKSRVTMSVDTSKNQFSLKLSSVTAADTAVYYCARDGITMIRGYYYGMDVWGQGTTVTVSS
VL: QLTQSPSSVSASVGDRVTITCRASRGISSWLAWYQQKPGKAPKLLIYTASSLQSGVPSRFSGSGSGTDFTLTISSLQPEDFATYYCQQAYSFPRTFGQGTKVEIKR
B4: Ha1-5.99 (antibody, IgG2, V domains shown)
VH: QVHLQQWGAGLLKPSETLSLTCAVYGGSFSGYYWSWIRQPPGKGLEWIGEINHSGSTSYKPSLKSRVTVSVDTSKNQFSLKLSYVTAADTAVYYCARDRGDYGDFLFDYWGQGTLVTVSS
VL: SPGERATLSCRASQSIGSTYLAWYQQKPGQAPRLLIYGASSRATGIPERFSGSGSGTDFTLTISGLEPEDFAVFYCQQCGSSPPTFGQGTKVEIKR
notes: ATCC PTA-6703; also called Ha1-5.99.1; HA1-5.99.1

target: T1, PSCA (prostate stem cell antigen), …; experiment: FACS titration on SW780 cells, sigmoidal dose-response fit (Graphpad Prism)

In order of falling Kd:
1. B2  6.91 nM
2. B3  0.32 nM
3. B4  0.28 nM
4. B1  0.23 nM
